# Paper PMC7516205, “The Two-Component Locus MSMEG_0244/0246 Together With MSMEG_0243 Affects Biofilm Assembly in M. smegmatis Correlating With Changes in Phosphatidylinositol Mannosides Acylation” (Frontiers in Microbiology, 2020)
# Target: the molecule itself
# Assay: SEC; HiLoad Superdex 200 PG, 20 mM Tris-HCl, 100 mM NaCl, pH 7.4; apo protein after Strep-tag purification; elution profile overlaid with that of a protein of known size (25.0 kDa)
protein,measurement,value
"StrepMSMEG_0243 (truncated MSMEG_0243 lacking the predicted signal peptide) (natural protein, Mycobacterium smegmatis mc2155, UniProt A0QP20 26-116, looked up, truncated version lacking the predicted signal peptide (predicted cleavage site between pos. 25 and 26: ALA-DP); The methods name the vector once as pET-22(b)+ and once as pET-28(b)+; vector-derived residues may be present; also called apo-MSMEG_0243; source: E. coli Bl21 Rosetta, purified (Streptavidin beads, size exclusion chromatography)) DPAPNPPNCTAADLAGVASGVSAGTSAYLFTHPQVNDFFTSLEGLPREEVKPKVADYLAANPQVKDELTAVRQPLVDLKNRCGTAPAPELP",stoichiometry N,2
